Experimental data taken from patent EP4682169A1.

Tests used:
[1] = biological target: human Claudin18.2 expressed on cells (human) (UniProt P56856); test: flow cytometry on 293FT CLDN18.2-Luc cells, APC anti-mouse IgG Fc
[2] = biological target: Human Claudin-18.2 protein (human) (UniProt P56856); test: SPR (Biacore 8K), antibody captured on Protein A, Claudin-18.2 protein as analyte

- EC50 [1]: 0.07 nM
- Kd [2]: 5.65 nM
- koff [2]: 0.000753 s⁻¹
- kon [2]: 133000 M⁻¹ s⁻¹
Substance: IMAB-mIgG2aFc (antibody)
